How the values were obtained:
[1] = tested on: DNA polymerase beta (Pol β) WT (human); experiment: EMSA; conditions: EMSA: 50 nM substrate, 50 mM Hepes pH 7.5, 37 mM KCl, 5 mM MgCl2, 0.5 mM EDTA, 100 ug/ml BSA, on ice 10 min, gel at 4 C, FA: 50 mM Hepes pH 7.5, 20 mM KCl, 2 mM
[2] = tested on: Pol β V303C, 5-iodoacetamidofluorescein labeled; experiment: fluorescence anisotropy; conditions: 5'-phosphorylated tetrahydrofuran at 5' end of nick; biotin at 5' ends; EMSA: 50 nM substrate, 50 mM Hepes pH 7.5, 37 mM KCl, 5 mM MgCl2, 0.5 mM EDTA, 100 ug/ml BSA, on ice 10 min, gel at 4 C; FA: 50 mM Hepes pH 7.5, 20 mM KCl, 2 mM
[3] = 5'-phosphorylated tetrahydrofuran at 5' end of nick

## DNA-5'-P-THF-O (-35)
[1]; [3]
  Kd: 20 nM

## DNA-gI (-49)
[1]; 5'-phosphate and 3'-OH at gap
  Kd: 30 nM

## DNA-gO (-35)
[1]; 5'-phosphate and 3'-OH at gap
  Kd: 20 nM

## NCP-5'-P-THF-O (-35)
[1]; [3]
  Kd: 360 nM

## NCP-5'-P-THF-O (-35), 5'-biotin
[2]
  Kd: 280 nM

## NCP-gI (-49)
[1]; 5'-phosphate and 3'-OH at gap
  Kd: 170 nM

## NCP-gO (-35)
[1]; 5'-phosphate and 3'-OH at gap
  Kd: 460 nM

## UND NCP
[1]
  Kd: 740 nM

## UND-DNA
[1]
  Kd: 50 nM
